# According to patent US20220273573A1, “SOLID DISPERSION GENISTEIN COMPOSITIONS AND METHODS OF MAKING AND USING THE SAME” (priority 2020, published 2022):
# B1: Neulasta ®: an FDA-approved radiation treatment drug, single subcutaneous injection (protein, UniProt P09919 31-207, looked up)
# Granulocyte …: TPLGPASSLPQSFLLKCLEQVRKIQGDGAALQEKLVSECATYKLCHPEELVLLGHSLGIPWAPLSSCPSQALQLAGCLSQLHSGLFLYQGLLQALEGISPELGPTLDTLQLDVADFATTIWQQMEELGMAPALQPTQGAMPAFASAFQRRAGGVLVASHLQSFLEVSYRVLRHLAQP
# modifications: pegfilgrastim; PEG, N-terminal Met
# notes: an FDA-approved radiation treatment drug, single subcutaneous injection
# Tested on: mice exposed to bilateral whole-body irradiation
# Test: Prophylactic efficacy, 180-day survival after whole-body irradiation
# Format: in vivo
# Conditions: single subcutaneous injection 0.3 mg/kg 24 hours after 9.2 Gy whole-body irradiation
# Description: In another study, selected samples of Example 3 were each orally administered at 200 mg Genistein/kg twice per day to groups of mice for 6 consecutive days. A separate vehicle control and genistein group was included for each sample formulation. The mice were then exposed to bilateral whole-body irradiation at a dose of 9.2 Gy at 0.6 Gy/min and the 180-day survival rate was observed. As additional controls, an injectable suspension (200 mg Genistein/kg) and corresponding vehicle were also administered to groups of mice via intramuscular injection 24 hours prior to exposure to bilateral whole-body irradiation at a dose of 9.2 Gy at 0.6 Gy/min. A separate group of mice was also administered a single subcutaneous injection of Neulasta® (0.3 mg/kg), an FDA-approved radiation treatment drug, 24 hours after exposure to bilateral whole-body irradiation at a dose of 9.2 Gy at 0.6 Gy/min. The results of this study are shown in Table 5 as percentage of surviving animals, and the number of surviving animals compared to the total number of animals in the study and depicted in FIG. 3.
molecule,measurement,value
B1,180-Day Survival,56% (9/16)
